Results reported in patent US12012457 (SYNTHEKINE, dated 2024).

T1: extracellular domain of human IL23R (hIL23R ECD) (human, UniProt Q5VWK5 24-355)
T1 construct: also called hIL-23 ECD antigen
T1 sequence: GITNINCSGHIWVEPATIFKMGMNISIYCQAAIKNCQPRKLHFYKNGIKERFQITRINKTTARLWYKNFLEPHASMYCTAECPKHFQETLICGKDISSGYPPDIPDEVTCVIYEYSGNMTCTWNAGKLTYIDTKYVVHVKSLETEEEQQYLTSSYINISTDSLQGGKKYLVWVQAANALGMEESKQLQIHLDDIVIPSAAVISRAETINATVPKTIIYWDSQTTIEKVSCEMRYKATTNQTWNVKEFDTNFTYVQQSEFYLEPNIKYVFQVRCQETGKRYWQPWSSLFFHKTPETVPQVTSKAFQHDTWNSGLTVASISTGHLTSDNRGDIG

B1: hIL23R VHH12 (VHH)
VHH: QVQLQESGGGSVQAGGSLRLSCAASGYTSSSRCMGWFRQAPGKEREGVARIYTPTRTTWYADSVKGRFTISQDNAKNTVYLEMASLKPEDTAKYFCAAGASCAVDLFSYWGQGTQVTVSS
B2: hIL23R VHH17 (VHH)
VHH: QVQLQESGGGSVQAGGSLRLSCTASGYTFSTMKYMGWFRQAPGKEREGVAAIWIAAGNTYYADSVKGRFTISQDNTKNTVYLQMNSLKPEDTALYYCAAARYGFVPSTWYLPERYNYWGQGTQVTVSS
B3: hIL23R VHH13 (VHH)
VHH: QVQLQESGGGSVQAGGSLRLSCAASGYTYCSYDMKWYRQAPGKKREFVSAIDSDGSTSYADSVKGRFTISQDNAKNTVYLQMNSLKPEDTAMYYCKTEGTIPVGVCPNYWGQGTQVTVSS
B4: hIL23R VHH14 (VHH)
VHH: QVQLQESGGGLVQPGGSLRLSCAASGYTYCSYDMKWYRQAPGKKREFVSAIDSDGSTSYADSVKGRFTISQDNAKNTVYLQMNSLKPEDTAMYYCKTEGTVPVGVCPNYWGQGTQVTVSS
B5: hIL23R VHH8 (VHH)
VHH: QVQLQESGGDSVQAGGSLRLSCAASGYTYCSYDMKWYRQAPGKEREFVSGIDSDGSISYADSVKGRFTISQDNAKNTVYLQMNSLKPEDTAMYYCKTEGTIPVGACPNYWGQGTQVTVSS
B6: hIL23R VHH3 (VHH)
VHH: QVQLQESGGGSVQAGESLRLSCAASGYTYCTYDMTWYRQAPGKKREFVSGIHSDGTTSYADSVKGRFTISQDNAENTVYLQMNSLKPEDTAMYYCKTDPIATITRRCDSYWGQGTQVTVSS
B7: hIL23R VHH5 (VHH)
VHH: QVQLQESGGGSVQAGGSLRLSCAASGYTYCSYDMSWYRQAPGKKREFVSAIASDGSTSYADSLKGRFTISQDNAKNTVYLQMNSLKPEDTAMYYCKTDPHVQSSGGYCPPYWGQGTQVTVSS
B8: hIL23R VHH15 (VHH)
VHH: QVQLQESGGGSVQAGGSLRLSCAASPGTYTSRYMGWFRQAPGKEREGVATIWPAGGNTVYADSVKGRFTISQDGAKKTVYLQMNSLKPEDTAMYYCAAAKYGGTSLAPYTYNYWGQGTQVTVSS
B9: hIL23R VHH10 (VHH)
VHH: QVQLQESGGGSVQAGGSLKLSCAASGYTYCNYDIAWYRQAPGKERKFVSAIASDGSTSYADSVKGRFTISQDNAKNTVYLQMNSLKPEDTAMYYCKTDPIATMTRRCDPYWGQGTQVTVSS
B10: hIL23R VHH18 (VHH)
VHH: QVQLQESGGGSVQAGGSLRLACAASGYTYCNYDIAWYRQAPGKERKFVSAIASDGSTSYADSVKGRFTISQDNAKNTVYLQMNSLKPEDTAMYYCKTDPIATMTRRCDPYWGQGTQVTVSS
B11: hIL23R VHH7 (VHH)
VHH: QVQLQESGGGSVQAGGSLRLSCAASGYTYCNYDIAWYRQAPGKERKFVSAIASDGITSYADSVKGRFTISQDNAKNTVYLQMNSLKPEDTAMYYCKTDPISTITRICDPYWGQGTQVTVSS
B12: hIL23R VHH16 (VHH)
VHH: QVQLQESGGGSVEAGGALTLSCVASGYTYCNYDIAWYRQAPGKERKFVSAIASDGSTSYADSVKGRFTISQDNAKNTVYLQMNSLKPEDTAMYYCKTDPIATMTRRCDPYWGQGTQVTVSS
B13: hIL23R VHH11 (VHH)
VHH: QVQLQESGGGSVQAGGSLRLSCAASGYTYCSYDMTWYRQAPGKKREFVSAIDSDGSTSYADSVKGRFTISQDNAKNTVYLQMNSLKPEDTAMYYCKTDPIATISRRCDSYWGQGTQVTVSS
B14: hIL23R VHH19 (VHH)
VHH: QVQLQESGGGSVQAGGSLRLSCAASGYTSCSYDMSWYRQAPGKKREFVSAIHSDGTTSYADSMKGRFTISQDNAKNTVYLQMNSLKPEDTAMYYCKTDPNYSDHVCPPYWGRGTQVTVSS
B15: hIL23R VHH6 (VHH)
VHH: QVQLQESGGGLVQPGGSLRLSCAASGYTYCSYDMGWYRQAPGKKRKFVSSINSDGTTSYADSVKGRFTISQDNAKNTVYLQMNSLKPEDTAMYYCKTDPQTRPGKPCADYWGQGTQVTVSS
B16: hIL23R VHH9 (VHH)
VHH: QVQLQESGGGLVQAGGSLRLSCAASGYTYCSYDMSWYRQAPGKERKFVSSINSDGTTSYADSVKGRFTISQDNAKNTVYLQMNSLKPEDTAMYYCKTDPQTRPGKPCADYWGQGTQVTVSS
B17: hIL23R VHH2 (VHH)
VHH: QVQLQESGGGSVQAGGSLRLSCAASGYTYCSYDMSWYRQAPGKKREFVSSFNSDGSTSYADSVKGRFTISQDNAKNTVYLQMNSLKPEDTAMYYCKTDPHADWGAPCGGDYWGQGTQVTVSS
B18: hIL23R VHH4 (VHH)
VHH: QVQLQESGGGSVQAGGSLRLSCAASGSTYCTYDMTWYRQAPGKRREFVSAINSDGSTSYADSVKGRFTISQDNAKNTVYLQMNSLKPEDTAMYYCKTDPNSGWGAPCGGDYWGQGTQVTVSS

Molecular target: T1, extracellular domain of human IL23R …
Test: periplasmic extract ELISA (PE-ELISA), 96-well plate, colorimetric

Binding result, binds:
B1, B2, B3, B4, B5, B6, B7, B8, B9, B10, B11, B12, B13, B14, B15, B16, B17, B18
